Measured values: article PMC12465037, “Defective targeting of PNPLA1 to lipid droplets causes ichthyosis in ABHD5-syndromic epidermal differentiation disorder” (Journal of Lipid Research, 2025)
Numbering of substitutions follows the chain as printed. In names and notes the source's numbering stands.

B1: Xpress-tagged human ABHD5 p.E260K (natural protein, UniProt Q8WTS1 1-349, looked up)
chain: MAAEEEEVDSADTGERSGWLTGWLPTWCPTSISHLKEAEEKMLKCVPCTYKKEPVRISNGNKIWTLKFSHNISNKTPLVLLHGFGGGLGLWALNFGDLCTNRPVYAFDLLGFGRSSRPRFDSDAEEVENQFVESIEEWRCALGLDKMILLGHNLGGFLAAAYSLKYPSRVNHLILVEPWGFPERPDLADQDRPIPVWIRALGAALTPFNPLAGLRIAGPFGLSLVQRLRPDFKRKYSSMFEDDTVTEYIYHCNVQTPSGKTAFKNMTIPYGWAKRPMLQRIGKMHPDIPVSVIFGARSCIDGNSGTSIQSLRPHSYVKTIAILGAGHYVYADQPEEFNQKVKEICDTVD
notes: human ABHD5, full-length open reading frame of NM_016006.6 with the patient mutation p.E260K; Disease-associated (ABHD5-sEDD) missense variant made by site-directed mutagenesis; source: HEK293T, transfected (pcDNA4/HisMaxC), in lysate
B2: Xpress-tagged human ABHD5 p.Q130P (natural protein, UniProt Q8WTS1 1-349, looked up)
chain: B1 chain with Q130P, K260E
notes: human ABHD5, full-length open reading frame of NM_016006.6 with the patient mutation p.Q130P; Disease-associated (ABHD5-sEDD) missense variant made by site-directed mutagenesis; source: HEK293T, transfected (pcDNA4/HisMaxC), in lysate
B3: Xpress-tagged human ABHD5 p.S115G (natural protein, UniProt Q8WTS1 1-349, looked up)
chain: B1 chain with S115G, K260E
notes: human ABHD5, full-length open reading frame of NM_016006.6 with the patient mutation p.S115G; Disease-associated (ABHD5-sEDD) missense variant made by site-directed mutagenesis; source: HEK293T, transfected (pcDNA4/HisMaxC), in lysate
B4: Xpress-tagged human ABHD5 p.G271R (natural protein, UniProt Q8WTS1 1-349, looked up)
chain: B1 chain with K260E, G271R
notes: human ABHD5, full-length open reading frame of NM_016006.6 with the patient mutation p.G271R; Disease-associated (ABHD5-sEDD) missense variant made by site-directed mutagenesis; source: HEK293T, transfected (pcDNA4/HisMaxC), in lysate
B5: Xpress-tagged human ABHD5 p.H82R (natural protein, UniProt Q8WTS1 1-349, looked up)
chain: B1 chain with H82R, K260E
notes: human ABHD5, full-length open reading frame of NM_016006.6 with the patient mutation p.H82R; Disease-associated (ABHD5-sEDD) missense variant made by site-directed mutagenesis; source: HEK293T, transfected (pcDNA4/HisMaxC), in lysate
B6: Xpress-tagged human ABHD5 p.R297N (natural protein, UniProt Q8WTS1 1-349, looked up)
chain: B1 chain with K260E, R297N
notes: human ABHD5, full-length open reading frame of NM_016006.6 with the patient mutation p.R297N; Disease-associated (ABHD5-sEDD) missense variant made by site-directed mutagenesis; source: HEK293T, transfected (pcDNA4/HisMaxC), in lysate

The binders below were run against T1, 3xFLAG-tagged full-length human PNPLA1, partially purified (pcDNA4/HisMaxC-mut-3xFLAG-hsPNPLA1) (human, UniProt Q8N8W4-1 1-532) (assay: ELISA; solid-phase interaction assay: 1.8 μg/well of purified 3xFLAG-PNPLA1, PLIN2 or PLIN3 coated on MaxiSorp plates (50 mM Tris-HCl pH 8.0, 200 mM NaCl); 40 μg HEK293T lysate with Xpress-tagged ABHD5 variants in TBS with 2% BSA and 0.05% Tween 20, overnight at 4°C; anti-Xpress and HRP secondary antibody, TMB, absorbance at 620 nm, background subtracted and normalised to expression). Settings: one partner purified.
T1 construct: human PNPLA1, full-length open reading frame of NM_001145717.1; also called 3xFLAG-PNPLA1; source: Expi293F, transfected, partially purified (IMAC, HisTrap HP)
T1 sequence (looked up): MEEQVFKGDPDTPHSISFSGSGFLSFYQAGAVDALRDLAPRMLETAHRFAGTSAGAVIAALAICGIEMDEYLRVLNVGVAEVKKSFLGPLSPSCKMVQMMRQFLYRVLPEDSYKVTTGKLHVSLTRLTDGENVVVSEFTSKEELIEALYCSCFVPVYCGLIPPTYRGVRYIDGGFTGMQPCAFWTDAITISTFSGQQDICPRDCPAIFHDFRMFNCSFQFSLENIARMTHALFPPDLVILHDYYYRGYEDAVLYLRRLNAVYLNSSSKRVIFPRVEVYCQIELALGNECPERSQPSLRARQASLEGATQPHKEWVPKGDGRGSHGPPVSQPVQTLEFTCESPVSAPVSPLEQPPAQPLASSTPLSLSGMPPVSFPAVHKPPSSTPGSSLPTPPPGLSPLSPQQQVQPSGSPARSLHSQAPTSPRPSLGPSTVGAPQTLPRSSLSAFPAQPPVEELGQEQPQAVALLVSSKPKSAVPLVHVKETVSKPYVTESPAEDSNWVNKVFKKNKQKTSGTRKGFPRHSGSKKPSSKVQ

Binder | change of PNPLA1 binding (normalised absorbance) against wild-type ABHD5 [%]
B1 | 25
B2 | 16
B3 | -17
B4 | -59
B5 | 44
B6 | -87
